Tests used:
covalent activated GCase = target: T1, covalent activated GCase (Homo sapiens, UniProt P04062); test: Saposin C activation assay with 4MU-Glc substrate, probe 4 pre-activated enzyme; format: biochemical; conditions: pH 4.7
T1 construct: purchased Shire Human Genetic Therapies, Inc. Vpriv
T1 sequence (P04062 40-536): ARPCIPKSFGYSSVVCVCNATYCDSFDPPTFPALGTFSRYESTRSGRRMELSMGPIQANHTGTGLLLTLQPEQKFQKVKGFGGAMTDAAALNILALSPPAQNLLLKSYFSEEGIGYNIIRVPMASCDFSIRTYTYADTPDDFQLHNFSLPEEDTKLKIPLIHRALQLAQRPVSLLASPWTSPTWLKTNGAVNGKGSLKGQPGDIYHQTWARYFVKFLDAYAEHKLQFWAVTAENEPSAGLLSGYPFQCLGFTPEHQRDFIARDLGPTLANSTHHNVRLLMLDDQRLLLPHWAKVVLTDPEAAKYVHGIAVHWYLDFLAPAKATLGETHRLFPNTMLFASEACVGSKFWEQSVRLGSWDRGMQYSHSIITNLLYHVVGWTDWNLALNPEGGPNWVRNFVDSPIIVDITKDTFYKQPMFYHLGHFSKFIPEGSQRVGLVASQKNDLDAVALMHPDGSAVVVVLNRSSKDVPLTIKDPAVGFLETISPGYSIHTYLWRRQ
Description: (§1) Saposin C (0.5 μL/well) was added to a black 96-well plate (the final titration was 1.72 nM to 1.76 μM, 12 concentrations). The compound 4 activated enzyme and wt. enzyme (33.5 μL/well, 7.5 nM final concentration) in assay buffer (50 mM Citric acid, 176 mM K2HPO4, 0.01% tween-20, 0.01% (g/mL) phosphatidylserine, pH 4.7) was added to the wells, respectively. After 5 min of incubation at room temperature, the enzyme reaction was initiated by the addition of 33 μL/well 4MU-Glc substrate. Final concentrations of the 4MU-Glc substrate was 1.5 mM. The reaction was terminated by the addition of 33 μL/well stop solution (1 M NaOH and 1 M glycine mixture, pH 10) after 30 min of incubation at 37° C. The fluorescence was then measured in the plate reader with Ex=365 nm and Em=440 nm.

wt. GCase = target: T2, wt. GCase (Homo sapiens, UniProt P04062); test: Saposin C activation assay with 4MU-Glc substrate, wt. enzyme; format: biochemical; conditions: pH 4.7
T2 construct: purchased Shire Human Genetic Therapies, Inc. Vpriv
T2 sequence (P04062 40-536): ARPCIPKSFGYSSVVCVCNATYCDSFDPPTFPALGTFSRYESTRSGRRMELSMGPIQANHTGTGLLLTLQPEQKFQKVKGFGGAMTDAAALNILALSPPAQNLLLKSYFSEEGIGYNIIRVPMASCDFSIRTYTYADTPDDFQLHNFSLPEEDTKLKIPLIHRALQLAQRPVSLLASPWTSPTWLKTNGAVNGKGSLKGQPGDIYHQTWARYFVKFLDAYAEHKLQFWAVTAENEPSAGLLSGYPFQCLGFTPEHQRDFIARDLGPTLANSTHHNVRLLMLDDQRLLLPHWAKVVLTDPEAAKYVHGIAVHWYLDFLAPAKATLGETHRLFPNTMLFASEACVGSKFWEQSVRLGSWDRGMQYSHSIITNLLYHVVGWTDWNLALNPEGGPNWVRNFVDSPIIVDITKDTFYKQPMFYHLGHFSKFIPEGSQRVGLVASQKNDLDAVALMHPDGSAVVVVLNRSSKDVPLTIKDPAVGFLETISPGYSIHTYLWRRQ
Description: as §1

B1: Saposin C: a natural co-factor of GCase (protein, UniProt P07602 311-390, looked up)
Saposin-C: SDVYCEVCEFLVKEVTKLIDNNKTEKEILDAFDKMCSKLPKSLSEECQEVVDTYGSSILSILLEEVSPELVCSMLHLCSG
modifications: Saposin-C
notes: a natural co-factor of GCase
Covalent activated GCase
  AC50: 71 nM
wt. GCase
  AC50: 100 nM
